Source: patent publication US20220143178A1
pKd: −log10 of the molar value.

Assays:
[1] = target: Pertuzumab-specific HER2 antigen (Rhinogen®); experiment: SPR, Biacore T200; IgG captured by anti-human Fc on CM5 chip, antigen flowed over
[2] = target: Pertuzumab-specific HER2 antigen (Rhinogen®); experiment: ELISA; antigen coated at 2 µg/ml, HRP anti-human light chain detection

pKd [1]: 8.55
EC50 [2]: 0.0153 µg/mL
Substance: Pertuzumab (antibody)
